Results published in publication PMC2233886.
Blank lines part the entries; values can stand above or below the substance they belong to.

How the values were obtained:
CNGA1-eYFP = CNGA1-eYFP (UniProt Q00194); assay: FRET or BRET
[1] = biological target: heteromeric CNGA1/CNGB1 channels (UniProt Q00194); assay: patch-clamp fluorometry
eCFP-CNGB1 = eCFP-CNGB1 (UniProt Q28181); assay: FRET or BRET
Chain of eCFP-CNGB1 (UniProt Q28181) (Q28181 whole entry): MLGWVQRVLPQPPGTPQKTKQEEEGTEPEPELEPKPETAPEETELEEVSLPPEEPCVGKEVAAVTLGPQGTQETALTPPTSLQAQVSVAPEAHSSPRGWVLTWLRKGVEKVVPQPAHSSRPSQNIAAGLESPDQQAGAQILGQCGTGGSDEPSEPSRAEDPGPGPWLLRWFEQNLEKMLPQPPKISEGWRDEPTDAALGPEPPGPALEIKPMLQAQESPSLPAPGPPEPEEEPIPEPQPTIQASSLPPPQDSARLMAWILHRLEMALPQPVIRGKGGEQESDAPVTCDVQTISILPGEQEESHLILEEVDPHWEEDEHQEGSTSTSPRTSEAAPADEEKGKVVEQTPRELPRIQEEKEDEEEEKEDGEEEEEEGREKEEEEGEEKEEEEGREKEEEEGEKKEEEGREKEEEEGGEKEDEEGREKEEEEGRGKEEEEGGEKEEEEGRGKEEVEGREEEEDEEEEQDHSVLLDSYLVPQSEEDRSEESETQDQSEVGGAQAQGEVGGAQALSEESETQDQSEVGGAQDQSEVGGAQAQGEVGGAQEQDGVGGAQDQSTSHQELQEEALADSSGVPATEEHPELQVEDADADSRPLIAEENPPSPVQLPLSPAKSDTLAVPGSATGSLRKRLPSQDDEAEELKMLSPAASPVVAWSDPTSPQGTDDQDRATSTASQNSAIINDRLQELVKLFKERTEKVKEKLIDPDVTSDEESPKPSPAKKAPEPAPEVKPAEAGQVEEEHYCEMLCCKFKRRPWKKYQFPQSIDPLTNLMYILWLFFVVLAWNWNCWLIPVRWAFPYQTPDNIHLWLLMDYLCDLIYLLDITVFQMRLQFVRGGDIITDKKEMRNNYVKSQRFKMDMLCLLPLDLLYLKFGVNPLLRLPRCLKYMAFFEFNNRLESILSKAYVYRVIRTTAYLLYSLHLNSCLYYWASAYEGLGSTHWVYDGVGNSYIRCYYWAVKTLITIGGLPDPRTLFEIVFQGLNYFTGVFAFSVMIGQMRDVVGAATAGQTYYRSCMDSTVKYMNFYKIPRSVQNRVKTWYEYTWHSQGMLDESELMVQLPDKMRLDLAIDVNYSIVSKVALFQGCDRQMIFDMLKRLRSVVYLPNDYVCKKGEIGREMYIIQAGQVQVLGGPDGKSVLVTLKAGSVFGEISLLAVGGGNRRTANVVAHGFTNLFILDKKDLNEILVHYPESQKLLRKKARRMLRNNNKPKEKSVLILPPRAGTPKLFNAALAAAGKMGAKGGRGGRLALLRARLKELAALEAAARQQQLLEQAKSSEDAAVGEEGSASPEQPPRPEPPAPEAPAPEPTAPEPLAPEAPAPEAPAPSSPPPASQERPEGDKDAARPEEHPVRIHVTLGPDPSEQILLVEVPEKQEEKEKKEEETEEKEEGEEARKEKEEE

Chain of heteromeric CNGA1/CNGB1 channels (Q00194 whole entry K2E, chain 1 of 2): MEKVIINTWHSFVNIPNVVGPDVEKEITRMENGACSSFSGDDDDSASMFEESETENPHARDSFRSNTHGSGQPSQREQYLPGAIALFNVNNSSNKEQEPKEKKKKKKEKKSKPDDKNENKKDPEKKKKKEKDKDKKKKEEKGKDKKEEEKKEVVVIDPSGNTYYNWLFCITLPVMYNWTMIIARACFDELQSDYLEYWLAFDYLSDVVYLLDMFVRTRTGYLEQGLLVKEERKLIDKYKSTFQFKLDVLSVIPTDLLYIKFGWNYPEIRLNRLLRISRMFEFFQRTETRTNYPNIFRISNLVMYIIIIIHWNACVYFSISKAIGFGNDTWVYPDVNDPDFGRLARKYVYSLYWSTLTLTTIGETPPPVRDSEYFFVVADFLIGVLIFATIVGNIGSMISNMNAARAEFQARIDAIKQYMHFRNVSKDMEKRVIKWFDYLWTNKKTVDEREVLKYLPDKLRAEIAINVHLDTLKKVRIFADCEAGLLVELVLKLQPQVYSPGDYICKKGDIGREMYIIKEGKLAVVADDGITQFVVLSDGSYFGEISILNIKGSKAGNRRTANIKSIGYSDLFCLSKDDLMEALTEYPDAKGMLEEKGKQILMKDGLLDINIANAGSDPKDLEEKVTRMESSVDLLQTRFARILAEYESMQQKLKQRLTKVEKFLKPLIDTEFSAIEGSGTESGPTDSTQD
Chain of heteromeric CNGA1/CNGB1 channels (Q28181 whole entry, chain 2 of 2, further chain): as the sequence (Q28181 whole entry) above
Chain of CNGA1-eYFP (Q00194 whole entry K2E): as the sequence (Q00194 whole entry K2E, chain 1 of 2) above
Chain of eCFP-CNGB1 (from UniProt Q28181 677-1394) (domain or fragment) (Q28181 whole entry, the tested form may be a part): as the sequence (Q28181 whole entry) above
Chain of eCFPΔCaM-CNGB1 (Q28181 whole entry, stated change not applied, the tested form may be a part): as the sequence (Q28181 whole entry) above

reduction in FRET against eCFP-CNGB1 (CNGA1-eYFP): 29%
Substance: eCFPΔCaM-CNGB1 (from UniProt Q28181 702-1394) (domain or fragment)

time constant of fluorescence decrease (washout in Ca2+-free solution) [1]: 51 s | time constant of fluorescence increase (250 nM CaM-488) [1]: 18.5 s | time constant of eCFP quenching (250 nM CaM-488) (eCFP-CNGB1): 24.6 s
Substance: CaM conjugated to the fluorescent dye Alexa-488 (from UniProt P62157 1-149) (natural protein)

F530/F480 ratio (initial, before Ca2+/CaM) (CNGA1-eYFP): 1.8
Substance: eCFP-CNGB1 (from UniProt Q28181 677-1394) (domain or fragment)
